Measurements: patent US9164103B2, “Monitoring and inhibiting human immunodeficiency virus infection by modulating HMGB1 dependent triggering of HIV-1 replication and persistence” (priority 2008, dated 2015)

Assays:
iDC = assay: Direct phenotypic maturation of iDCs (flow cytometry of maturation markers); type: cell-based, human
Description: Co-staining with HLA-DR and CD86 specific antibodies allowed the identification of mature DCs (CD86^brightHLA-DR^bright). Data from a representative experiment out of three independent experiments are shown. […] The proportion of mDCs induced by LPS (DC0) (78.1% CD86^brightHLA-DR^bright) is shown as a positive control. […] These experiments have been performed on primary cells from a number of donors, and representative data from three of them are shown. When indicated, statistical analyses were made with the non parametric Mann-Whitney test. * p<0.05, ** p=0.02.
The maturation status of DCs was determined by flow cytometry with CD86 and HLA-DR—specific antibodies. […] (b) iDC (10^6 cells/ml) were cultured for 48 h with increasing concentrations (1-10 μg/ml) of rh-HMGB1. Cells were then stained with anti-CD86, -HLA-DR, -CD80, -CD83, DC-LAMP and -CD40 antibodies and analyzed by flow cytometry.

RAGE = assay: Surface expression of RAGE on DCs (flow cytometry); type: cell-based, human; conditions: uninfected iDCs, 1 μg/ml
Protocol: (d) Flow cytometry detection of surface expression of RAGE by iDCs, DC0, or iDCs incubated with rh-HMGB1 (1 μg/ml). iDCs were either non infected or infected with HIV-1 (1 ng/ml p24 for 3 h). (e) iDC, DC0, uninfected or HIV-1-infected iDC cocultured for 24 h with aNK cells, were incubated with rh-HMGB1 (1 μg/ml) and subsequently stained with anti-RAGE antibodies and analyzed by flow cytometry. NK cells were excluded from the analysis through the co-staining with CD3- and CD56-specific antibodies (CD3^−CD56^+).
The possible involvement of RAGE during NK-DC cross-talk was evaluated with the same approach, comparing RAGE expression on DCs cocultured with aNK cells and DC cultured alone.
Phenotypic analysis of DCs and characterization of their maturation stage was performed by flow cytometry. DCs were stained for 20 min at 4° C. with antibodies specific for CD80, CD83, CD86, HLA-DR, CD40, DC-LAMP or DC-SIGN (all antibodies from BD Biosciences, San Jose, Calif.) diluted in 100 μl of PBS/10% FCS/0.1% NaN3. In some experiments, antibody specific for HMGB1-receptor, RAGE (Abcam), was used to stain DCs. After two washings, cells were fixed in 1% PFA, immediately acquired on a FACScalibur (Becton Dickinson) and analyzed with Flow Jo software.

iDCs = assay: Cytokine and chemokine production by DCs (MAP/Luminex); type: cell-based, human; conditions: iDCs 48 h, 1 or 10 μg/ml
Protocol: FIG. 3 (a)-(e). aNK-dependent maturation of HIV-1-infected iDCs is mediated by HMGB1 and involves RAGE. (a) Left panel: iDCs were cultured for 24 h either alone or with aNK cells, in the presence of blocking anti-HMGB1 antibodies (10 μg/ml) or glycyrrhizin (10 μg/ml). The maturation status of DCs was determined by flow cytometry with CD86 and HLA-DR—specific antibodies. Right panel: same experiment, but performed with HIV-1 infected iDCs. Data represent mean±sd of at least three independent experiments, and statistical comparisons were made with the non parametric Mann-Whitney test. * p<0.05. (b) iDC (10^6 cells/ml) were cultured for 48 h with increasing concentrations (1-10 μg/ml) of rh-HMGB1. Cells were then stained with anti-CD86, -HLA-DR, -CD80, -CD83, DC-LAMP and -CD40 antibodies and analyzed by flow cytometry. (c) Influence of rh-HMGB1 on cytokine and chemokine production (determined by MAP) by DCs. iDCs (10^6 cells/ml) were incubated for 48 h in medium or in presence of rh-HMGB1 (1 or 10 μg/ml). As a positive control, iDCs were stimulated with LPS (DC0). […] (e) iDC, DC0, uninfected or HIV-1-infected iDC cocultured for 24 h with aNK cells, were incubated with rh-HMGB1 (1 μg/ml) and subsequently stained with anti-RAGE antibodies and analyzed by flow cytometry. […]

R5-HIV-1Ba-L = assay: HIV-1 replication in infected iDCs (p24 ELISA in culture supernatant); type: cell-based; conditions: 3 days, 1 μg/ml
Protocol: FIGS. 6 (a), (b) and (c). Exogenous rh-HMGB1 triggers HIV-1 and HIV-2 replication in iDC. (a) HIV-1-infected iDC were cultured alone or in the presence of aNK cells for 3 days. Rh-HMGB1 (1 μg/ml) was added in some cultures. HIV replication was measured by p24 quantification in culture supernatant (b) HIV1-infected iDC were cultured alone or in the presence of aNK cells for 3 days. Blocking anti-HMGB1 antibodies (10 μg/ml) or glycyrrhizin (10 μg/ml) were added at culture initiation. HIV replication was measured by p24 quantification in culture supernatant. The mean±sd of three independent experiments is shown. Statistical comparisons were made with the non parametric Mann-Whitney test. * p<0.05; (c) HIV-2-infected iDC were cultured alone or in the presence of aNK cells for 3 days. Rh-HMGB1 (1 μg/ml) was added in some cultures. HIV replication was measured by p24 quantification in culture supernatant.
Exogenous HMGB1 was recently reported to increase HIV-1 replication in infected monocytic cell lines38, and to induce in vitro the reactivation of HIV-1 in PBMCs from HIV-1-infected patients under antiretroviral therapy39. Therefore, the question of the role of HMGB1 in the NK-dependent triggering of HIV replication in DCs was addressed. […] To investigate the influence of HMGB1 in the triggering of HIV-1 replication in infected-iDC-aNK cocultures, HMGB1-specific neutralizing antibodies or glycyrrhizin were added to these cocultures and p24 production was measured in the supernatant. […] They also indicate that aNK cell-dependent stimulation of HIV-1 replication in iDCs is mediated by HMGB1.
Virus stock preparation was prepared by amplification of R5-HIV-1Ba-L on MDM from healthy donors. Viral stock was then clarified by centrifugation prior to determination of HIV1 p24 concentration. iDCs were plated in 96-well culture plates at 200,000 cells/well and incubated for 3 hours at 37° C. in a 5% CO2 atmosphere with R5-HIV-1BAL at various concentrations (0.001 to 10 ng p24/ml). Cells were harvested, washed four times with media containing 10% FCS and, when indicated, rNK or aNK cells were added at a NK:DC ratio of 1:5, unless otherwise indicated. NK-DC cocultures lasted 24 h before analysis of the maturation stage of DCs and/or quantification of viral production. In some experiments (FIG. 6), HIV-1 infected iDCs were incubated alone or with aNK cells for 3 days, in the presence of rh-HMGB1 (1 μg/ml) (R&DSystems), and in some cultures in the presence of rabbit antiHMGB1 Abs (10 μg/ml) (Abcam, Cambridge, UK) or Glycyrrhizin (10 μg/ml).
The concentration of HIV-1 in the supernatant of infected cell cultures was determined by measuring the amount of p24 protein by ELISA (Ingen, Belgium). DNA from cells was extracted using the GIAamp DNA Blood Mini Kit (Qiagen, Basel, Switzerland) and quantified HIV-1 proviral load by RT-PCR as described previously54. The frequency of HIV-1-infected cells was determined by flow cytometry to detect intracellular p24 molecule. Cells were surface stained with antibodies specific for CD40 (BD Biosciences, San Jose, Calif.) to target DC and intracellular stained with p24-specific antibodies (Coulter). Stained cells were fixed in 1% PFA, immediately acquired on a FACScalibur (Becton Dickinson) and analyzed with FlowJo software. In some experiments infected DCs were imaged, after immunofluorescence, by laser scanning confocal microscopy.

HIV-2 = HIV-2 replication in infected iDCs (p24 ELISA in culture supernatant); type: cell-based; conditions: HIV-2-infected iDC, day 3
Protocol: FIGS. 6 (a), (b) and (c). Exogenous rh-HMGB1 triggers HIV-1 and HIV-2 replication in iDC. (a) HIV-1-infected iDC were cultured alone or in the presence of aNK cells for 3 days. Rh-HMGB1 (1 μg/ml) was added in some cultures. HIV replication was measured by p24 quantification in culture supernatant (b) HIV1-infected iDC were cultured alone or in the presence of aNK cells for 3 days. Blocking anti-HMGB1 antibodies (10 μg/ml) or glycyrrhizin (10 μg/ml) were added at culture initiation. HIV replication was measured by p24 quantification in culture supernatant. The mean±sd of three independent experiments is shown. Statistical comparisons were made with the non parametric Mann-Whitney test. * p<0.05; (c) HIV-2-infected iDC were cultured alone or in the presence of aNK cells for 3 days. Rh-HMGB1 (1 μg/ml) was added in some cultures. HIV replication was measured by p24 quantification in culture supernatant. […]
2—NK-DC cocultures: cells were harvested, washed three times with RPMI containing 10% FCS and, when indicated, aNK cells were added at a NK:DC ratio of 1:5. […] NK-DC cocultures lasted 3 to 7 days before quantification of viral production in culture supernatants.
3—Quantification of HIV-2 viral production: the concentration of HIV-2 particles in the supernatants was determined with the p24 ELISA kit (Ingen, Belgium).

B1: rh-HMGB1: recombinant human HMGB1 protein (R&D Systems), added exogenously (protein, UniProt P09429 1-215, looked up)
High mobility group protein B1: MGKGDPKKPRGKMSSYAFFVQTCREEHKKKHPDASVNFSEFSKKCSERWKTMSAKEKGKFEDMAKADKARYEREMKTYIPPKGETKKKFKDPNAPKRPPSAFFLFCSEYRPKIKGEHPGLSIGDVAKKLGEMWNNTAADDKQPYEKKAAKLKEKYEKDIAAYRAKGKPDAAKKGVVKAEKSKKKKEEEEDEEDEEDEEEEEDEEDEDEEEDDDDE
B1 was tested, and the “percentage of CD86bright HLA-DRbright DCs” value (iDC; 10 μg/ml, 48 h of culture, medium alone 65%) was 71%, the “phenotypic maturation of iDC” value (iDC; 1 to 10 μg/ml, 24 h, similar at 48 h) was “did not induce phenotypic maturation of iDC” and the “expression of CD80, CD83 and DC-lamp” value (iDC; rh-HMGB1-treated DCs compared with mDC (DC0)) was “not fully mature”. The “RAGE expression on iDCs” value (RAGE) was “down-regulation of RAGE”, the “release of the chemokines MCP1, MIP-1α, MIP-1β and IL-8” value (iDCs) was “increased release” and the p24 production (R5-HIV-1Ba-L; HIV-1-infected iDC cocultured with aNK cells) was “significant stimulatory effect”. The “production of p24 in culture supernatants” value (R5-HIV-1Ba-L; HIV-1-infected iDC cultured alone) was “enhancing dramatically the production of p24” and the “HIV-2 viral replication (p24)” value (HIV-2) was “slight increase in viral replication”.
